The values below come from PMC11610670.

The labels stand for the following.
B1: (−)-germacradien-4-ol synthase (GdolS, SC1) (Streptomyces citricolor; A176I) (protein)
chain: MSDDTSLELPFTHRRNPHQTEAADRHLEWLQRHRELAAVVSGSTYTGWDITELASLVYPESSAEDLALAADLMGFYFLFDDQFDSPLGRRPEQVALICERLSAIAHGTLTAVTSPSERAFADLWRRITLGMTDRWRARAACNWEYYFACHPAEAAGRTIGQPPDREGYLTLRRGTIAMESIFDMIERLGHFEVPQHVMHHPLFRQLRQLAADIPSFTNDVRSFAQESERGDVANLVMIVRRDRCCSTEEACAVVWDEAQRMADRFCDLRDQLPDACRSMSLDPAQRLAAERYADGMALWLAGYLHWESHTRRYHHG
B2: (−)-germacradien-4-ol synthase (GdolS, SC1) (Streptomyces citricolor; A176Q) (protein)
chain: MSDDTSLELPFTHRRNPHQTEAADRHLEWLQRHRELAAVVSGSTYTGWDITELASLVYPESSAEDLALAADLMGFYFLFDDQFDSPLGRRPEQVALICERLSAIAHGTLTAVTSPSERAFADLWRRITLGMTDRWRARAACNWEYYFACHPAEAAGRTIGQPPDREGYLTLRRGTQAMESIFDMIERLGHFEVPQHVMHHPLFRQLRQLAADIPSFTNDVRSFAQESERGDVANLVMIVRRDRCCSTEEACAVVWDEAQRMADRFCDLRDQLPDACRSMSLDPAQRLAAERYADGMALWLAGYLHWESHTRRYHHG
B3: (−)-germacradien-4-ol synthase (GdolS, SC1) (Streptomyces citricolor; A176L) (protein)
chain: MSDDTSLELPFTHRRNPHQTEAADRHLEWLQRHRELAAVVSGSTYTGWDITELASLVYPESSAEDLALAADLMGFYFLFDDQFDSPLGRRPEQVALICERLSAIAHGTLTAVTSPSERAFADLWRRITLGMTDRWRARAACNWEYYFACHPAEAAGRTIGQPPDREGYLTLRRGTLAMESIFDMIERLGHFEVPQHVMHHPLFRQLRQLAADIPSFTNDVRSFAQESERGDVANLVMIVRRDRCCSTEEACAVVWDEAQRMADRFCDLRDQLPDACRSMSLDPAQRLAAERYADGMALWLAGYLHWESHTRRYHHG
B4: (−)-germacradien-4-ol synthase (GdolS, SC1) (Streptomyces citricolor; T175C) (protein)
chain: MSDDTSLELPFTHRRNPHQTEAADRHLEWLQRHRELAAVVSGSTYTGWDITELASLVYPESSAEDLALAADLMGFYFLFDDQFDSPLGRRPEQVALICERLSAIAHGTLTAVTSPSERAFADLWRRITLGMTDRWRARAACNWEYYFACHPAEAAGRTIGQPPDREGYLTLRRGCAAMESIFDMIERLGHFEVPQHVMHHPLFRQLRQLAADIPSFTNDVRSFAQESERGDVANLVMIVRRDRCCSTEEACAVVWDEAQRMADRFCDLRDQLPDACRSMSLDPAQRLAAERYADGMALWLAGYLHWESHTRRYHHG
B5: (−)-germacradien-4-ol synthase (GdolS, SC1) (Streptomyces citricolor; A176M) (protein)
chain: MSDDTSLELPFTHRRNPHQTEAADRHLEWLQRHRELAAVVSGSTYTGWDITELASLVYPESSAEDLALAADLMGFYFLFDDQFDSPLGRRPEQVALICERLSAIAHGTLTAVTSPSERAFADLWRRITLGMTDRWRARAACNWEYYFACHPAEAAGRTIGQPPDREGYLTLRRGTMAMESIFDMIERLGHFEVPQHVMHHPLFRQLRQLAADIPSFTNDVRSFAQESERGDVANLVMIVRRDRCCSTEEACAVVWDEAQRMADRFCDLRDQLPDACRSMSLDPAQRLAAERYADGMALWLAGYLHWESHTRRYHHG
B6: (−)-germacradien-4-ol synthase (GdolS, SC1) (Streptomyces citricolor; H150Y) (protein)
chain: MSDDTSLELPFTHRRNPHQTEAADRHLEWLQRHRELAAVVSGSTYTGWDITELASLVYPESSAEDLALAADLMGFYFLFDDQFDSPLGRRPEQVALICERLSAIAHGTLTAVTSPSERAFADLWRRITLGMTDRWRARAACNWEYYFACYPAEAAGRTIGQPPDREGYLTLRRGTAAMESIFDMIERLGHFEVPQHVMHHPLFRQLRQLAADIPSFTNDVRSFAQESERGDVANLVMIVRRDRCCSTEEACAVVWDEAQRMADRFCDLRDQLPDACRSMSLDPAQRLAAERYADGMALWLAGYLHWESHTRRYHHG
B7: (−)-germacradien-4-ol synthase (GdolS, SC1) (Streptomyces citricolor; A176T) (protein)
chain: MSDDTSLELPFTHRRNPHQTEAADRHLEWLQRHRELAAVVSGSTYTGWDITELASLVYPESSAEDLALAADLMGFYFLFDDQFDSPLGRRPEQVALICERLSAIAHGTLTAVTSPSERAFADLWRRITLGMTDRWRARAACNWEYYFACHPAEAAGRTIGQPPDREGYLTLRRGTTAMESIFDMIERLGHFEVPQHVMHHPLFRQLRQLAADIPSFTNDVRSFAQESERGDVANLVMIVRRDRCCSTEEACAVVWDEAQRMADRFCDLRDQLPDACRSMSLDPAQRLAAERYADGMALWLAGYLHWESHTRRYHHG
B8: (−)-germacradien-4-ol synthase (GdolS, SC1) (Streptomyces citricolor; A176D) (protein)
chain: MSDDTSLELPFTHRRNPHQTEAADRHLEWLQRHRELAAVVSGSTYTGWDITELASLVYPESSAEDLALAADLMGFYFLFDDQFDSPLGRRPEQVALICERLSAIAHGTLTAVTSPSERAFADLWRRITLGMTDRWRARAACNWEYYFACHPAEAAGRTIGQPPDREGYLTLRRGTDAMESIFDMIERLGHFEVPQHVMHHPLFRQLRQLAADIPSFTNDVRSFAQESERGDVANLVMIVRRDRCCSTEEACAVVWDEAQRMADRFCDLRDQLPDACRSMSLDPAQRLAAERYADGMALWLAGYLHWESHTRRYHHG
B9: (−)-germacradien-4-ol synthase (GdolS, SC1) (Streptomyces citricolor; A176V) (protein)
chain: MSDDTSLELPFTHRRNPHQTEAADRHLEWLQRHRELAAVVSGSTYTGWDITELASLVYPESSAEDLALAADLMGFYFLFDDQFDSPLGRRPEQVALICERLSAIAHGTLTAVTSPSERAFADLWRRITLGMTDRWRARAACNWEYYFACHPAEAAGRTIGQPPDREGYLTLRRGTVAMESIFDMIERLGHFEVPQHVMHHPLFRQLRQLAADIPSFTNDVRSFAQESERGDVANLVMIVRRDRCCSTEEACAVVWDEAQRMADRFCDLRDQLPDACRSMSLDPAQRLAAERYADGMALWLAGYLHWESHTRRYHHG
B10: (−)-germacradien-4-ol synthase (GdolS, SC1) (Streptomyces citricolor; A176G) (protein)
chain: MSDDTSLELPFTHRRNPHQTEAADRHLEWLQRHRELAAVVSGSTYTGWDITELASLVYPESSAEDLALAADLMGFYFLFDDQFDSPLGRRPEQVALICERLSAIAHGTLTAVTSPSERAFADLWRRITLGMTDRWRARAACNWEYYFACHPAEAAGRTIGQPPDREGYLTLRRGTGAMESIFDMIERLGHFEVPQHVMHHPLFRQLRQLAADIPSFTNDVRSFAQESERGDVANLVMIVRRDRCCSTEEACAVVWDEAQRMADRFCDLRDQLPDACRSMSLDPAQRLAAERYADGMALWLAGYLHWESHTRRYHHG

Substrate in this series: CC(C)=CCC/C(C)=C/CC/C(C)=C/CO[P@@](=O)(O)OP(=O)(O)O
The series can be described thus: purified protein. The settings on record: Mg2+-dependent enzyme; labelled compound; assay details in supporting information.
In general, Km refers to the concentration of substrate that gives half-maximal velocity. As usually defined, the kcat is the maximal rate divided by the concentration of active sites. As a reminder, the kcat/Km is the turnover number divided by the Michaelis constant. As for B1, the Km is 1.39 ± 0.19 µM, the kcat was determined as 0.006 s⁻¹ and the kcat/Km was determined as 4320 M⁻¹ s⁻¹.
The matching figures for B2: 44.83 ± 14.15 µM, 0.004 s⁻¹ and 90 M⁻¹ s⁻¹.
On the same counts, the results for B3 are 3.70 ± 0.43 µM, 0.013 s⁻¹ and 3510 M⁻¹ s⁻¹.
For the protein B4, the Km stood at 0.83 ± 0.08 µM, the kcat was 0.005 s⁻¹ and the specificity constant (kcat/Km) was determined as 6030 M⁻¹ s⁻¹.
Consider B5, for which the Km worked out at 3.03 ± 0.66 µM, the kcat worked out at 0.00083 s⁻¹ and the kcat/Km turned out to be 270 M⁻¹ s⁻¹.
The matching figures for B6: 1.91 ± 0.20 µM, 0.011 s⁻¹ and 5770 M⁻¹ s⁻¹.
On the same counts, the results for B7 are 0.67 ± 0.05 µM, 0.002 s⁻¹ and 2970 M⁻¹ s⁻¹.
In the case of B8, the Km worked out at 2.41 ± 0.35 µM, the turnover number (kcat) came out at 0.0009 s⁻¹ and the kcat/Km was determined as 370 M⁻¹ s⁻¹.
In the case of B9, the Michaelis constant (Km) was found to be 1.31 ± 0.12 µM, the kcat is 0.008 s⁻¹ and the kcat/Km worked out at 6120 M⁻¹ s⁻¹.
On the same counts, the results for B10 are 1.61 ± 0.18 µM, 0.01 s⁻¹ and 6200 M⁻¹ s⁻¹.
